Assay results as given in US7993849B2.

Assays:
[1] = target: rat MMP-13 (rat) (UniProt P23097)
[2] = target: human MMP-1 (human) (UniProt P03956)

rat TIMP-1, sequence (P30120 24-217 limits assumed): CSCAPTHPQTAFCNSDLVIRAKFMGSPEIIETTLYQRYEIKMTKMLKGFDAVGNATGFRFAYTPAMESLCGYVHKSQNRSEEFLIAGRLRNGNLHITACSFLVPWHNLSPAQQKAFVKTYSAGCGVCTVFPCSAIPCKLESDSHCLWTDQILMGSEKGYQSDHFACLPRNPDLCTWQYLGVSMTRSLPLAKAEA

Row | MMP-13 activity on fluorogenic peptide substrate (% MMP-13 activity) [1] | MMP-1 activity on fluorogenic peptide substrate (% MMP-1 activity) [2] | Substance
1 | 20 |  | rat TIMP-1
2 |  | 27 | human TIMP-1
